Results taken from US20230035659A1, “Compositions and Methods for TTR Gene Editing and Treating ATTR Amyloidosis Comprising a Corticosteroid or Use Thereof” (Intellia Therapeutics, Inc., priority 2019, published 2023).
Strand notation (5' to 3'): a small letter for the sugar, then the base; units joined by * are phosphorothioate-linked, units joined directly phosphodiester-linked; [ ] holds rarer units or linkages, { } end groups; capitals alone tell only the bases. m = 2'-O-methyl; r = 2'-OH (RNA)

Experiments:
[1] = tested on: potential off-target genomic sites; assay: Off-target analysis by oligo insertion based assay in primary human hepatocytes (sgRNAs); assay type: cell-based; conditions: 100 ng Cas9 mRNA, 25 nM sgRNA, 12.5 nM donor oligo, 48 h
Description: Off-target analysis of sgRNAs targeting TTR was performed in primary human hepatocytes (PHH) as described in Example 5, with the following modifications. PHH were plated at a density of 33,000 cells per well on collagen-coated 96-well plates as described in Example 1. Twenty-four hours post plating, cells were washed with media and transfected using Lipofectamine RNAiMAX (ThermoFisher, Cat. 13778150) as described in Example 1. Cells were transfected with a lipoplex containing 100 ng Cas9 mRNA, immediately followed by the addition of another lipoplex containing 25 nM of the sgRNA and 12.5 nM of the donor oligo (0.3 μL/well). Cells were lysed 48 hours post-transfection and gDNA was extracted and analyzed as further described in Example 5. The data is graphically represented in FIG. 20.
Fewer sites were detected in PHH for every guide tested as compared to the HekCas9 cell line, with no unique sites detected in PHH alone.

TTR mRNA = TTR mRNA knockdown (quantitative PCR) in primary human hepatocytes treated with LNPs; assay type: cell-based; conditions: PHH, gRNA:mRNA 1:2, 96 h, vs untreated control
Description: In one experiment, PHH were cultured and treated with LNPs comprising Cas9 mRNA (SEQ ID NO:1) and a gRNA of interest (See FIG. 29, Table 36), as described in Example 4. The LNPs were prepared using the cross-flow procedure described above and purified and concentrated using PD-10 columns and Amicon centrifugal filter units, respectively. The LNPs were formulated with an N:P ratio of 6.0 and contained Lipid A, Cholesterol, DSPC, and PEG2k-DMG in a 50:38:9:2 molar ratio, respectively. The LNPs comprised a gRNA:mRNA ratio of 1:2, and the cells were treated at a dose of 300 ng (with respect to the amount of mRNA cargo delivered).
(§1) Ninety-six (96) hours following LNP treatment (with biological triplicates for each condition), mRNA was purified from PHH cells using the Dynabeads mRNA DIRECT Kit (ThermoFisher Scientific) according to the manufacturer's protocol. Reverse Transcription (RT) was performed with Maxima reverse transcriptase (ThermoFisher Scientific) and a poly-dT primer. The resulting cDNA was purified with Ampure XP Beads (Agencourt). For Quantitative PCR, 2% of the purified cDNA was amplified with Taqman Fast Advanced Mastermix and 3 Taqman probe sets, TTR (Assay ID: Hs00174914_m1), GAPDH (Assay ID: Hs02786624_g1), and PPIB (Assay ID: Hs00168719_m1). The assays were run on the QuantStudio 7 Flex Real Time PCR System according to the manufacturer's instructions (Life Technologies). Relative expression of TTR mRNA was calculated by normalizing to the endogenous controls (GAPDH and PPIB) individually, and then averaged.
The groups in FIG. 29 and Table 36 are identified by the gRNA ID used in each LNP preparation.
In a separate experiment, TTR mRNA knockdown was evaluated following treatment with LNPs comprising G000480, G000486, and G000502. The LNPs were formulated and PHH were cultured and treated with the LNPs, each as described in the experiment above in this Example with the exception that the cells were treated at a dose of 100 ng (with respect to the amount of mRNA cargo delivered).
as §1, with “(single treatment” for “(with biological triplicates”, “the High Capacity cDNA Reverse Transcription Kit” for “Maxima reverse transcriptase”, “according to the manufacturer's instructions.” for “and a poly-dT primer. The resulting cDNA was purified with Ampure XP Beads (Agencourt).”, “the” for “the purified”
The groups in FIG. 30 and Table 37 are identified by the gRNA ID used in each LNP preparation.

[2] = LNP dose 100 ng mRNA cargo, single treatment
[3] = LNP dose 300 ng mRNA cargo, biological triplicates

B1: G000486: TTR sgRNA modified sequence, Human, SEQ ID NO: 93; guide sequence of CR003339 (nucleic acid)
guide: mA*mC*mA*rCrArArArUrArCrCrArGrUrCrCrArGrCrArGrUrUrUrUrArGrAmGmCmUmAmGmAmAmAmUmAmGmCrArArGrUrUrArArArArUrArArGrGrCrUrArGrUrCrCrGrUrUrArUrCrAmAmCmUmUmGmAmAmAmAmAmGmUmGmGmCmAmCmCmGmAmGmUmCmGmGmUmGmCmU*mU*mU*mU
- # Sites in PHH (off-target integration sites detected) [1]: 0
- Avg % Knockdown (TTR mRNA) (TTR mRNA; [2]): 97.36%

B2: G000482: TTR sgRNA modified sequence, Human, SEQ ID NO: 89; guide sequence of CR003365 (nucleic acid)
guide: mU*mG*mU*rArGrArArGrGrGrArUrArUrArCrArArArGrGrUrUrUrUrArGrAmGmCmUmAmGmAmAmAmUmAmGmCrArArGrUrUrArArArArUrArArGrGrCrUrArGrUrCrCrGrUrUrArUrCrAmAmCmUmUmGmAmAmAmAmAmGmUmGmGmCmAmCmCmGmAmGmUmCmGmGmUmGmCmU*mU*mU*mU
- # Sites in PHH (off-target integration sites detected) [1]: 2
- Avg % Knockdown (TTR mRNA) (TTR mRNA; [3]): 82.31%

B3: G000502: TTR Cyno specific sgRNA modified sequence, SEQ ID NO: 114; guide sequence of CR000689; cross homologous between mouse and cyno (nucleic acid)
guide: mA*mC*mA*rCrArArArUrArCrCrArGrUrCrCrArGrCrGrGrUrUrUrUrArGrAmGmCmUmAmGmAmAmAmUmAmGmCrArArGrUrUrArArArArUrArArGrGrCrUrArGrUrCrCrGrUrUrArUrCrAmAmCmUmUmGmAmAmAmAmAmGmUmGmGmCmAmCmCmGmAmGmUmCmGmGmUmGmCmU*mU*mU*mU
- Avg % Knockdown (TTR mRNA) (TTR mRNA; [2]): 90.94%

B4: G000494: TTR sgRNA modified sequence, Human, SEQ ID NO: 101; guide sequence of CR003360 (nucleic acid)
guide: mG*mU*mG*rArGrUrCrUrGrGrArGrArGrCrUrGrCrArUrGrUrUrUrUrArGrAmGmCmUmAmGmAmAmAmUmAmGmCrArArGrUrUrArArArArUrArArGrGrCrUrArGrUrCrCrGrUrUrArUrCrAmAmCmUmUmGmAmAmAmAmAmGmUmGmGmCmAmCmCmGmAmGmUmCmGmGmUmGmCmU*mU*mU*mU
- # Sites in PHH (off-target integration sites detected) [1]: 0
- Avg % Knockdown (TTR mRNA) (TTR mRNA; [3]): 91.15%

B5: G000483: TTR sgRNA modified sequence, Human, SEQ ID NO: 90; guide sequence of CR005298 (nucleic acid)
guide: mU*mC*mC*rArCrUrCrArUrUrCrUrUrGrGrCrArGrGrArGrUrUrUrUrArGrAmGmCmUmAmGmAmAmAmUmAmGmCrArArGrUrUrArArArArUrArArGrGrCrUrArGrUrCrCrGrUrUrArUrCrAmAmCmUmUmGmAmAmAmAmAmGmUmGmGmCmAmCmCmGmAmGmUmCmGmGmUmGmCmU*mU*mU*mU
- # Sites in PHH (off-target integration sites detected) [1]: 0
- Avg % Knockdown (TTR mRNA) (TTR mRNA; [3]): 68.78%

B6: G000480: TTR sgRNA modified sequence, Human, SEQ ID NO: 87; guide sequence of CR003353 (nucleic acid)
guide: mA*mA*mA*rGrGrCrUrGrCrUrGrArUrGrArCrArCrCrUrGrUrUrUrUrArGrAmGmCmUmAmGmAmAmAmUmAmGmCrArArGrUrUrArArArArUrArArGrGrCrUrArGrUrCrCrGrUrUrArUrCrAmAmCmUmUmGmAmAmAmAmAmGmUmGmGmCmAmCmCmGmAmGmUmCmGmGmUmGmCmU*mU*mU*mU
- # Sites in PHH (off-target integration sites detected) [1]: 2
- Avg % Knockdown (TTR mRNA) (TTR mRNA; [2]): 95.61%
- Avg % Knockdown (TTR mRNA) (TTR mRNA; [3]): 95.19%

B7: G000570: TTR sgRNA modified sequence, Human, SEQ ID NO: 111; guide sequence of CR003347 (nucleic acid)
guide: mC*mA*mU*rUrGrArUrGrGrCrArGrGrArCrUrGrCrCrUrGrUrUrUrUrArGrAmGmCmUmAmGmAmAmAmUmAmGmCrArArGrUrUrArArArArUrArArGrGrCrUrArGrUrCrCrGrUrUrArUrCrAmAmCmUmUmGmAmAmAmAmAmGmUmGmGmCmAmCmCmGmAmGmUmCmGmGmUmGmCmU*mU*mU*mU
- # Sites in PHH (off-target integration sites detected) [1]: 1
- Avg % Knockdown (TTR mRNA) (TTR mRNA; [3]): 93.38%

B8: G000499: TTR sgRNA modified sequence, Human, SEQ ID NO: 106; guide sequence of CR005303 (nucleic acid)
guide: mU*mG*mA*rArUrCrCrArArGrUrGrUrCrCrUrCrUrGrArGrUrUrUrUrArGrAmGmCmUmAmGmAmAmAmUmAmGmCrArArGrUrUrArArArArUrArArGrGrCrUrArGrUrCrCrGrUrUrArUrCrAmAmCmUmUmGmAmAmAmAmAmGmUmGmGmCmAmCmCmGmAmGmUmCmGmGmUmGmCmU*mU*mU*mU
- # Sites in PHH (off-target integration sites detected) [1]: 1
- Avg % Knockdown (TTR mRNA) (TTR mRNA; [3]): 91.38%
